Results: PMC9482650, “Quantitative fragmentomics allow affinity mapping of interactomes” (Nature Communications, 2022)

Target: T1, DFNB31_2, Q9P202
T1 sequence (Q9P202 274-371, limits assumed, looked up): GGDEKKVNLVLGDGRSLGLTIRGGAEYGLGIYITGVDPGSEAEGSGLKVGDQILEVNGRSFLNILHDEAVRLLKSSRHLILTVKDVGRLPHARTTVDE
Assay: holdup assay
Parameters: key: below the threshold = too weak to quantify, mostly under pKd 3.1 to 4
Conditions: plain residues with an end cap or a label only (N-terminal biotin on a linker: ado-ado)

Binder	pKd
SMLNRRTTPV [CACNG4, Q9UBN1]	below the threshold

Target: T2, DFNB31_3, Q9P202
T2 sequence (Q9P202 811-907, limits assumed, looked up): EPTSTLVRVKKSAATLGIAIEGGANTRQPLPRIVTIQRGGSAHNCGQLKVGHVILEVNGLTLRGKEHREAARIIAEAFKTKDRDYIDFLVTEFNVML
Assay: holdup assay
Parameters: key: below the threshold = too weak to quantify, mostly under pKd 3.1 to 4
Conditions: plain residues with an end cap or a label only (N-terminal biotin on a linker: ado-ado)

Binder	pKd
SMLNRRTTPV [CACNG4, Q9UBN1]	below the threshold

Target: DLG1_1, Q12959
Assay: holdup assay
Parameters: key: below the threshold = too weak to quantify, mostly under pKd 3.1 to 4
Conditions: plain residues with an end cap or a label only (N-terminal biotin on a linker: ado-ado)

Binder	pKd
SMLNRRTTPV [CACNG4, Q9UBN1]	4.42

Target: T3, DLG3_3, Q92796
T3 sequence (Q92796 374-475, limits assumed, looked up): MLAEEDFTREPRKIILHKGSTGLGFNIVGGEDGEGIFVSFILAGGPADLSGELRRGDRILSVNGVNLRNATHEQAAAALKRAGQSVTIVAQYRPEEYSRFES
Assay: holdup assay
Parameters: key: below the threshold = too weak to quantify, mostly under pKd 3.1 to 4
Conditions: plain residues with an end cap or a label only (N-terminal biotin on a linker: ado-ado)

Binder	pKd
SMLNRRTTPV [CACNG4, Q9UBN1]	4.77

Target: T4, GRIP1_4, Q9Y3R0
T4 sequence (Q9Y3R0 467-571, limits assumed, looked up): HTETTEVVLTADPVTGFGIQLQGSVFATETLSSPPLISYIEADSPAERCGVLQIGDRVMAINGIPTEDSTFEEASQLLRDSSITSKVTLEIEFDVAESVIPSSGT
Assay: holdup assay
Parameters: key: below the threshold = too weak to quantify, mostly under pKd 3.1 to 4
Conditions: plain residues with an end cap or a label only (N-terminal biotin on a linker: ado-ado)

Binder	pKd
SMLNRRTTPV [CACNG4, Q9UBN1]	below the threshold

Target: T5, GRIP1_5, Q9Y3R0
T5 sequence (Q9Y3R0 568-668, limits assumed, looked up): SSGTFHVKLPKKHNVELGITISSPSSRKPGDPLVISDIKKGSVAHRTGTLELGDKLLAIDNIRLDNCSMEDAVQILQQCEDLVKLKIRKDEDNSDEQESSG
Assay: holdup assay
Parameters: key: below the threshold = too weak to quantify, mostly under pKd 3.1 to 4
Conditions: plain residues with an end cap or a label only (N-terminal biotin on a linker: ado-ado)

Binder	pKd
SMLNRRTTPV [CACNG4, Q9UBN1]	below the threshold

Target: GRIP2_5, Q9C0E4
Assay: holdup assay
Parameters: key: below the threshold = too weak to quantify, mostly under pKd 3.1 to 4
Conditions: plain residues with an end cap or a label only (N-terminal biotin on a linker: ado-ado)

Sequence of GRIP2_5, Q9C0E4 (Q9C0E4 544-642): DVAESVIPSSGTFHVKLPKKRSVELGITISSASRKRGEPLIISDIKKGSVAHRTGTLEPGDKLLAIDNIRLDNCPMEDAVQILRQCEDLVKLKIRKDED

Binder	pKd
SMLNRRTTPV [CACNG4, Q9UBN1]	below the threshold

Target: Inadl_2, Q8NI35
Assay: holdup assay
Parameters: key: below the threshold = too weak to quantify, mostly under pKd 3.1 to 4
Conditions: plain residues with an end cap or a label only (N-terminal biotin on a linker: ado-ado)

Sequence of Inadl_2, Q8NI35 (Q8NI35 238-335): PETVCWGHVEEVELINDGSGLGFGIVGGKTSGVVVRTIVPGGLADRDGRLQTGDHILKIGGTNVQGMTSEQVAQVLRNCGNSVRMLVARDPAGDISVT

Binder	pKd
SMLNRRTTPV [CACNG4, Q9UBN1]	below the threshold

Target: T6, LIN7B, Q9HAP6
T6 sequence (Q9HAP6 88-185, limits assumed, looked up): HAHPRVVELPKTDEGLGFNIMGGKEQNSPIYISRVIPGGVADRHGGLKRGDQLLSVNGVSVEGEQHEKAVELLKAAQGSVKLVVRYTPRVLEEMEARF
Assay: holdup assay
Parameters: key: below the threshold = too weak to quantify, mostly under pKd 3.1 to 4
Conditions: plain residues with an end cap or a label only (N-terminal biotin on a linker: ado-ado)

Binder	pKd
SMLNRRTTPV [CACNG4, Q9UBN1]	below the threshold

Target: LNX1_3, Q8TBB1
Assay: holdup assay
Parameters: key: below the threshold = too weak to quantify, mostly under pKd 3.1 to 4
Conditions: plain residues with an end cap or a label only (N-terminal biotin on a linker: ado-ado)

Sequence of LNX1_3, Q8TBB1 (Q8TBB1 500-596): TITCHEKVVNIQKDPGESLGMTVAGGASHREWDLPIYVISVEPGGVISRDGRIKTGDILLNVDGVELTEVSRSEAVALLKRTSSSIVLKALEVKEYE

Binder	pKd
SMLNRRTTPV [CACNG4, Q9UBN1]	below the threshold

Target: T7, LRRC7, Q96NW7
T7 sequence (Q96NW7 1440-1537, limits assumed, looked up): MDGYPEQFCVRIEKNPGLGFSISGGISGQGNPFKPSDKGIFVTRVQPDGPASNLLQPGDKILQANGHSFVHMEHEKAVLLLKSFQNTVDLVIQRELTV
Assay: holdup assay
Parameters: key: below the threshold = too weak to quantify, mostly under pKd 3.1 to 4
Conditions: plain residues with an end cap or a label only (N-terminal biotin on a linker: ado-ado)

Binder	pKd
SMLNRRTTPV [CACNG4, Q9UBN1]	below the threshold

Target: MAST2, Q6P0Q8
Assay: holdup assay
Parameters: key: below the threshold = too weak to quantify, mostly under pKd 3.1 to 4
Conditions: plain residues with an end cap or a label only (N-terminal biotin on a linker: ado-ado)

Sequence of MAST2, Q6P0Q8 (Q6P0Q8 1099-1202): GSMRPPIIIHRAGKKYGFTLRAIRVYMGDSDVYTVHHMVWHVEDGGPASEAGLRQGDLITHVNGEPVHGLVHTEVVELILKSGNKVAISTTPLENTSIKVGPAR

Binder	pKd
SMLNRRTTPV [CACNG4, Q9UBN1]	4.65

Target: T8, MPDZ_12, O75970
T8 sequence (O75970 1857-1958, limits assumed, looked up): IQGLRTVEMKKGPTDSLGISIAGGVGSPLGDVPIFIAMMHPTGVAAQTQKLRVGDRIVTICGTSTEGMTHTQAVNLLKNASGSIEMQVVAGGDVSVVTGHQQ
Assay: holdup assay
Parameters: key: below the threshold = too weak to quantify, mostly under pKd 3.1 to 4
Conditions: plain residues with an end cap or a label only (N-terminal biotin on a linker: ado-ado)

Binder	pKd
SMLNRRTTPV [CACNG4, Q9UBN1]	below the threshold

Target: T9, MPP2, Q14168
T9 sequence (Q14168 180-250, limits assumed, looked up): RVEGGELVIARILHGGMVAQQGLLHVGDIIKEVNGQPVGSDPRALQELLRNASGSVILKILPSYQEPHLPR
Assay: holdup assay
Parameters: key: below the threshold = too weak to quantify, mostly under pKd 3.1 to 4
Conditions: plain residues with an end cap or a label only (N-terminal biotin on a linker: ado-ado)

Binder	pKd
SMLNRRTTPV [CACNG4, Q9UBN1]	below the threshold

Target: NHERF2_2, Q15599
Assay: holdup assay
Parameters: key: below the threshold = too weak to quantify, mostly under pKd 3.1 to 4
Conditions: plain residues with an end cap or a label only (N-terminal biotin on a linker: ado-ado)

Sequence of NHERF2_2, Q15599 (Q15599 142-238): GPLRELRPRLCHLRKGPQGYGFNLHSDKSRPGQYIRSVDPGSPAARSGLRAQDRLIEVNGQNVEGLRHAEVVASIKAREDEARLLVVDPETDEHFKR

Binder	pKd
SMLNRRTTPV [CACNG4, Q9UBN1]	below the threshold

Target: T10, NHERF3_4, Q5T2W1
T10 sequence (Q5T2W1 373-468, limits assumed, looked up): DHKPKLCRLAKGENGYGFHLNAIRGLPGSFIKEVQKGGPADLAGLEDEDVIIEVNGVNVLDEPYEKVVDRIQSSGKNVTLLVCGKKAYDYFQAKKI
Assay: holdup assay
Parameters: key: below the threshold = too weak to quantify, mostly under pKd 3.1 to 4
Conditions: plain residues with an end cap or a label only (N-terminal biotin on a linker: ado-ado)

Binder	pKd
SMLNRRTTPV [CACNG4, Q9UBN1]	3.5

Target: T11, PARD3B_1, Q8TEW8
T11 sequence (Q8TEW8 196-299, limits assumed, looked up): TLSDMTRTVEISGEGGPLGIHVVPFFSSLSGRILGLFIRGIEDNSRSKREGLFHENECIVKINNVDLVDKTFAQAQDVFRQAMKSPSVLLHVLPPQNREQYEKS
Assay: holdup assay
Parameters: key: below the threshold = too weak to quantify, mostly under pKd 3.1 to 4
Conditions: plain residues with an end cap or a label only (N-terminal biotin on a linker: ado-ado)

Binder	pKd
SMLNRRTTPV [CACNG4, Q9UBN1]	below the threshold

Target: T12, PDZD2_2, O15018
T12 sequence (O15018 329-429, limits assumed, looked up): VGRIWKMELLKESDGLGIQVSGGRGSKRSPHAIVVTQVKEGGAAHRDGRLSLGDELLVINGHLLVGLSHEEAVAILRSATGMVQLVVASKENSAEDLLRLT
Assay: holdup assay
Parameters: key: below the threshold = too weak to quantify, mostly under pKd 3.1 to 4
Conditions: plain residues with an end cap or a label only (N-terminal biotin on a linker: ado-ado)

Binder	pKd
SMLNRRTTPV [CACNG4, Q9UBN1]	below the threshold

Target: PDZRN4_1, Q6ZMN7
Assay: holdup assay
Parameters: key: below the threshold = too weak to quantify, mostly under pKd 3.1 to 4
Conditions: plain residues with an end cap or a label only (N-terminal biotin on a linker: ado-ado)

Sequence of PDZRN4_1, Q6ZMN7 (Q6ZMN7 213-318): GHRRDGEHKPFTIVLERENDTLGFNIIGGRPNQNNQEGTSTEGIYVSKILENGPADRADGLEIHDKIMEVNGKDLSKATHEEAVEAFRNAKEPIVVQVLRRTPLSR

Binder	pKd
SMLNRRTTPV [CACNG4, Q9UBN1]	3.75

Target: T13, RAPGEF6, Q8TEU7
T13 sequence (Q8TEU7 525-625, limits assumed, looked up): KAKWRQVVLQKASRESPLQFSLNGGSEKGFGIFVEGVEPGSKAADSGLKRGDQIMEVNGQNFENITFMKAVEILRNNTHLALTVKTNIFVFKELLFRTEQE
Assay: holdup assay
Parameters: key: below the threshold = too weak to quantify, mostly under pKd 3.1 to 4
Conditions: plain residues with an end cap or a label only (N-terminal biotin on a linker: ado-ado)

Binder	pKd
SMLNRRTTPV [CACNG4, Q9UBN1]	below the threshold

Target: SCRIB_1, Q14160
Assay: holdup assay
Parameters: key: below the threshold = too weak to quantify, mostly under pKd 3.1 to 4
Conditions: plain residues with an end cap or a label only (N-terminal biotin on a linker: ado-ado)

Sequence of SCRIB_1, Q14160 (Q14160 718-814): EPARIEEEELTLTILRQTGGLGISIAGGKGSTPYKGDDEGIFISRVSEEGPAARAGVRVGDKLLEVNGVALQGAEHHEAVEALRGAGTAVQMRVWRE

Binder	pKd
SMLNRRTTPV [CACNG4, Q9UBN1]	3.56

Target: SCRIB_3, Q14160
Assay: holdup assay
Parameters: key: below the threshold = too weak to quantify, mostly under pKd 3.1 to 4
Conditions: plain residues with an end cap or a label only (N-terminal biotin on a linker: ado-ado)

Sequence of SCRIB_3, Q14160 (Q14160 999-1103): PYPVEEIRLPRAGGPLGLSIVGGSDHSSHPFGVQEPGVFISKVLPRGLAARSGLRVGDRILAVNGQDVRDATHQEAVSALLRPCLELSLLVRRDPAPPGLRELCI

Binder	pKd
SMLNRRTTPV [CACNG4, Q9UBN1]	4.11

Target: SNX27, Q96L92
Assay: holdup assay
Parameters: key: below the threshold = too weak to quantify, mostly under pKd 3.1 to 4
Conditions: plain residues with an end cap or a label only (N-terminal biotin on a linker: ado-ado)

Binder	pKd
SMLNRRTTPV [CACNG4, Q9UBN1]	4.93

Target: TJP2_1, Q9UDY2
Assay: holdup assay
Parameters: key: below the threshold = too weak to quantify, mostly under pKd 3.1 to 4
Conditions: plain residues with an end cap or a label only (N-terminal biotin on a linker: ado-ado)

Sequence of TJP2_1, Q9UDY2 (Q9UDY2 24-128): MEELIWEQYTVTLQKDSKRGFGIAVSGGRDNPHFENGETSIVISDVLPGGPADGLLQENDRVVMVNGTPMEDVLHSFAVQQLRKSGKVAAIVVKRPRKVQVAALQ

Binder	pKd
SMLNRRTTPV [CACNG4, Q9UBN1]	3.97
